Assay: protease stability score; higher = more stable; yeast display proteolysis, trypsin and chymotrypsin;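 further: relative to predicted unfolded state with 0 unfolded-like and 1 meaning tenfold more protease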

Sequence | protease stability score
DEMTHEIKRFLKEILRSSRTGDEHTDKHLMDPNVKIHYGEFHFHGREQAANFLSELRIHHVHIRDVDVQGDKATIDTEMDVEYNGQRYIFDVTLIMQKIDGRWLIKKVRYE | 1.3
DENDTARKIIKTLLDIMREGDEDKLRDQMDPNVRADVGDKTVHGREHAAKFLAHIVKRADHISITLKSLHNHNGRLRMQAEVRIVHNGRTERVTLEMVFRDHNGKLLIERMKYG | 2.36
DENEDRIRHLLELHFHALETGDEKKTHDLFDPNTRVEVGDKTLHGRELVSKHVAEDLIKIKGLTVRIRDWNIVGDKVVVDSRVEFNGVRVETILVALKVDGRWLVKSIHIH | 0.42
DENEEDSKRAVELIEDSMKTGDEELMTKQMDPNVRVDYNGKEHHGWEHAKRWFHLMGVDHLHLHRVRLINGVVHLDVDSRINGREFKVHITALKVDGQWVLKEISIR | 1.26
DENEELLTDMIRLLKNVLETGDEEHFHRLADPHVRFKIGDKIFHGREEATRIFSEVMERFKNVRLRLEHIEIIGDKITIHTRIDVGDKSYEMHIHARKVNGKWIMETLFIR | 1.17
DENEEQLEDSVRMYIEAVQTGDEDSLRKLMDPHWRLEYGDKELHGRWALEVRHKFFKGMRIHHIEVHSVEIQGDKAKIIIHVLMEFDGRRLHIKTEVTVQKINGRWFNHSEKIN | 1.14
DENEETMRHYFELLVRNLRTGDWHSLTRLMDPHVRLEYNGREFHGMEEVIRFLLHIRLRHLHLERVEIQGDKVRMHVSVDGEVNGRREEWDVELIARKIDGRWIQTSEIYR | 0.212
DENEHIAREFLRQFLRQVETGDEYRLMELMDPNARINFDGKDLHGRDEWIRKIREIRFDQTHIHDVRIQGNKMEVDTRWDGEINGVRTIFDVHMDIRKVDGKWIIKVINIH | 1.66
DENEHQTRIWNEIFIKIFLTGDWKRLSDMADPHVRSIINGQDLHGMENLSKIVEEIREELRVRSVHLHDIKVINGVAKVDTRLDMEYGDKRTDYNIEIHTLKVDGRWHLKEIKLV | 0.292
DENEQEARKAIEELIHNRETGDEQRMSELLDPHTRIDYNGVEVHGRHYLLKLLRRIDHSRFNLRRLDIQGEKIIMEGELELDVNGVKIRIKLTEIILKVNGRWILHSSRIE | 1.95
DENERRYNELSRLLFEWFLTGDEKMLSNFMDPNAKAEVNGKEEHGREELIRIYHDWLRKAGVDHIQPRHLETRHFDGRVHVHINVDVLINGKILHIHIDIDMVKIDGKWIIKHIRIHER | 1.2
DENETALREVIKRYFKAILTGDEHELENLLDPNVRVEINGVKLHGMRDYLEWIREWRIKDMRIRIEHVEVIGNKMIIDSRLRVNETVNGVTRDREKKLHLIVTKINGRWHIEEINEE | 2.16
DENHEIVKRALEIIVVALLTGDFDTLTELFDPEVRIQVGDKHLHGREDFWKWLKELITRADHNDFKVESIEVQGDKMVIDGEMIIHYNGREHRYKTEVIILKIDGRWVVKRIHYE | 1.65
DENHEVAEYILKILVESLETGNEELFKRLIDPNVRIEINGVEVHGWQFWIDHIDELRIRRVEAILRDAREYNGRIDMDTELKMDGEIDGVRTETSRRVRMVLEKVNGRWYVREIRIE | 2.39
DENHRHASELIEIFRHALATGDWETLYRLMDPHTRVLINGKDLHGMEEHLTFLLEEHERLGIENIDVRVRIDHREVQGDKIIIHITIHLNFNGREIYFESRIIVSKFNGRWSIESLEIR | 1.42
DENKETIDRVYRLLDEALKTGDFEIFAYLMDPHVRNDVDGVDIVGRDLVKKVLEDIIRDLGFKHETLKVHDWRSINGRVHIDTEVELDVNGVDLRKRTIIIALKINGKWRITEIVFE | 2.33
DENKKAFEEAVSWFRHTSETGDEELFNDLVDPDTRTNYNGVSYHGWKEYEEYLRLIRELLGIKVVKHVHIHSVDVQGDFIHMDVELNLHYNGRERIERSHIRAFKVNGRWRMKSMIVV | 0.362
DENRELMERIARLVLHWLHTGDEHFIERLVDPHARVQQGDKEDHGMDRVVEMWNELRVHHVELRHLEVFENHATIHGEIDGEINGQRVRLDFHIHIHIVDGRMETIHVHFR | 2.1
DENRKFARVMTELILHSWYTGDWELDVKLADPNVLNDFNGKEIHGMENVSRQFIEMRIDDVRIRDLRIEVYGEKLISKIDGERNGHFDGRTVDTRMHLELIMEKINGRWIIREIRIEVK | 2.59
DENRQDLEHFHKVLLKLLETGDENMIARLADPNVREDVNGVDNHGMKDLERTLREIHERVDHIHHVHIHRVDVINGRAHLDGTLRGHVNGVSFQHRETVIYLKFNGRWVLHSVHLK | 1.2
DENRRHELEIAQILLHAWVTGDEHILRRFADPDMQFVLEFDGKTIDLHGRELVISFFRDLVDKLGVDHITLESHRVINGRTHIDTRVIFNGVDREEKIHIHIVNGRLKHLELRVH | 1.22
DENSHALEIAFRLFLEYYYTGDPDEMVELADPRTRLFVGEYDSHGREQFETLLREEFKRLGIDVQHITEWEIHVQGDKVILHVRVHEVFNGKETETEIHITMHKIDGRWLISSQKRRIV | 0.626
DENTENEHNIAEVIIEAFETGDWEMLWRMADPNTLLEIIIGDKRMEIHGMHIFVKYWVEFQDRFKNVRISLKSYHVYDGRIELHMNLNFNGRRVEEEVLIYFINGRVKRIHIRHH | 2.8
DENTESVHWLIRVLIQSARTGDEDSMRHLFDPNTKLNINGQEIHGREVAEEWANRVDHIEHVELHRIRNIDGQLDVEGKMRGTVNGKRDENRIELIIIKVDGQWFLRSIRIE | 1.57
DENTRLRREAFRIERKTWKTGDERLLEENADPDAKYDVDGKDLHGWREVVHFLDDFLKRFGFDHFEVKEIRVQGEKIIIDGRVEVNGRVFETRVIFTKFDGQWSVQSLQMR | 0.444

Sequence | protease stability score
DEQEDRDMKKMYKNLQEGDDQRVADMADPNARWRVGDKTYHGKDSIRHWAKEVHDRMHFRIQSITVQNENGKVKVEIKWVTDENGKPVDQTVQVKAELHNGHIVDIDITTQS | 0.098
DEQEEDDREAVKHALEVWETGDERVLWELFDPHVRIIVGDKHVHGREHFLRLTHELKRKVKGIRFDIRHVNLYDGRIEMDTDLEVDGRKHKTTIIAKKVNGRWILESIEIR | 1.45
DEQEEFSHRIMRLLIDLWHTGDWTLIEQYLDPNVRFEVGDKRHHGRESAVKALLELHRRLGVKHFDVKDKDQQGEKLVVVLEDRAENHHMEHELIVVKIDGRWTNHSIISRIH | 1.01
DEQEEHLHEMVRRFLHHFLTGDWKTLHRMFDPNARYHINGQDHVGREEINRFWREHWEHARIHDLRIKSVELFENRSHIIGHLDGNIDGKEVRTDVEIILVIVNGRVRYIEVRQH | 1.52
DEQEEHVEKLVHLLLRRFKTGDEEFWRRLADPRTRLHVGDKHHHGRETFMKVFRHLIEDLGIDHRIEKHFEVINGVLHIHQIIVVDGQEFELRIHVFVVDGKVKSIDVSIHTR | 0.896
DEQEEKLERMYKLWLELHRTGDEEILTELIDPTARLEVGDKSFHGREILIEWFHRELKRIDHKEVRERHIEIQGEWLHAEIEVIIIVNGREIRITTELIIVTINGKIKSINIKIR | 2.23
DEQEELSQLLAEIVIELTKTGDEHTLERLMDPHVRANINGVELHGRKKVREFLEEWLRRVKNVRLHIDDRTVQGEKIIVDGTWNVGDKSFRIEFIVIIINGRHTSFNVLDI | 1.51
DEQEESSRIIHKLIEHVAETGDWREWRKLLDPNTRLDVNGKEFHGWEKLLEHLEEHLDLLGVTKFTLRIQIRSMETQGNYVFIVGITHIHQGDKEIHRFTELIVLKINGKWLMKEIRFR | 1.37
DEQEESTRIAMELVLRSLKTGDERTVSELVDPNVRYEQGDKEYHGWESASEVVRRLGVDHFIIHDIKIQGNKLHLHGELVVGDYTLKYHIIVLKVNGRWQITRMHTI | 1.2
DEQEHVAERIVNDLNHSMETGDEHRIRELVDPHVRVIIGDKELHGMEEFIRWLREFGVERIRVRLKRFSFVGNKIRLDTVMNINGQNVDTKLIIEKVDGRWLLRSIHVD | 2.18
DEQEKEAKRVVEEILEILLTGDFESFLRNADPNVRIIIGDKDYWGREHTKRLLTDWRREMRVKHIDVRDIEVQGNKVKLHLESDLEINGRRTRTEMEIIVVTFNGRFESLEIRTV | 1.75
DEQEKELEEFLKLLLYAIWTGDEDTITELADPNVRMHIGDKLNHGWEILSDRLTEIRSDIHDFKLRHIETIGNKMTLFGDLNGQINVGDKEKRTIIHMILHVHKIDGRWLLTHIHFD | 0.265
DEQEKFSKEMARLFIELRLTGDWETFTHLADPDVLWEIHVDGQSERNIGWESVRHAMEKERHELRIEHIHIRDVKIQGNKIHINTEVVGQFNGRRFIVDSRIHIHIVNGRIKDVTIEIE | 1.16
DEQEKHLKKISEDLLRIWLTGDEDTFREMADPDMRFIDEDHELHGREELIRMMREFWHKFKNARIEIHHVEVIGEYNNVDIRLSVDGRVVDVKLHFLIVNGRLKKVEVRER | 2.07
DEQEQHAFKFFEHHTEILKTGDWEEVRKNLDPHVRLHVNGVEMHGMEHATELALKEDTEIRSELRLEDVDVQGDKVRFDIRLIYHIGDKTIVHKIDLVMIKINGRWLVHSIHVE | 0.36
DEQERAQEALRRFLRVFQEGDPDRARQQADKDVQMVVGDKEYEGREQVSRAIESLRERVDEFHITVRRITVSGNRVVVDAKLKLNINGKEDDVTLKLVIDVSGDKISIKRVEVR | 1.16
DEQERAYELALRTIEHDLRTGDEKSLQENADPNTRLLVGDKELVGWELFIKLMREIRIRHIEVRHMEVQGNKLIFDGKVDGEIGDKRVEYETEIILEKVDGQWRIKEKRLH | 0.862
DEQERHAEEFVREHMNAWVTGDWEMLIRQLDPNTRFIQGDKRHHGREALHYMRERVDHIKSVHIDRVDVYNGRVIIDIELIGLIDGRDVTFHVHIITKKIDGRWIVHELRHE | 0.82
DEQERIIRRLTELFTRAEKTGDWKNFLELADPHVRLKYGEFDHIGREEFYTLKEHVDKKLGIEFRDTDIKDLVVVGDKAVSHLTNDGEVNGVRHELSLNVVISKFNGRWELEQVEIK | 0.897
DEQERLMRKLAEIIVEAIITGDWRSLAELFDPDVRIDINGRELIGRETWVTWLQEEYKRFKNQRIELHIRDVDVQGDYSHIDGHSRIVIGDFVFTTEIHTEIVIIDGRVHSMHHHVK | 1.18
DEQERRSRELLHLWLELFETGDEDNMQEFLDPNVRLIIIQGDNQVNHHGWENMVKIAKFYKNMQIKVHDVEFQGDKVIMDTRLLVDGRLRHTTVILDIVNGVIKHVEIRYS | 1.69
DEQETHNNNILERLIRILHTGDEHIYEHLFDPHARLHIGDKRFHGREELSRWLRRLGVRWEHFIERDVEVQGEKLRIEGERTVHIDGVRHHHRTEIIIIVIDGKIKSYEERHV | 0.572
DEQFKEQKDMHRELEEALLTGDEESWHRLMDPNTRLFFEGRIHHGREEVVRAIREIRRRFGFKVIKRFEVEHVEIIDGRVDIRTIIRGEVNGRDSSLDTRLILNKIDGKWVIQSIIIE | 2.2
DEQHEEAERAMEHMNRIEHTGDEDDLDRLMDPRTKIEVGDKELHGRHLWRVFLREARIHDSKIRDIRVIGDKVTFHTEVRITINGVEVRVHVIMIIEKVDGKWLVHRVIIR | 1.35
DEQHKEVRTFLEIHINMRATGNEEILFHQVDPHVRLIINGRQFHGWEEYEKFAHTSARFFKNVQIRIHRVEVYIQGDKIHVNMHVWYNVNGQTMEVDLHSEMIKVDGQWRLDSEIISIR | 1.33

From the NTF2 design screens of Basanta et al. (2020)
